Results taken from patent publication US20090264344A1 (University of California, published 2009).
Bridges are numbered along the chain shown (N, C = ends).

Experiments:
[1] = target: T1, Recombinant HIV-1 BaL gp120 (HIV-1 (BaL)); test: SPR (Biacore 2000), gp120 BaL immobilized on chip, peptide in flow, 1:1 fit
T1 construct: domain: gp120; also called gp120(BaL); gp120 BaL

[2] = target: T2, Recombinant human soluble CD4 (full-length 45 kDa glycosylated ectodomain) (human, UniProt P01730 26-396); test: SPR (Biacore 2000), soluble CD4 immobilized on CM5 chip, peptide in flow, 1:1 fit
T2 construct: extracellular domain; Immobilized on a CM5 chip by amine coupling

[3] = target: T3, Glycosylated HIV-1 gp120 (LAV) envelope glycoprotein (HIV-1 (LAV), UniProt P03377 33-516, limits assumed, glycosylated); test: SPR (Biacore 2000), gp120 LAV immobilized on CM5 chip, peptide in flow, 1:1 fit
T3 construct: domain: gp120; Bought
Experimental: Surface plasmon resonance (SPR) experiments were done with a Biacore 2000 system (Biacore, Inc., Piscataway, N.J.). The running buffer (pH 7.4) contained 10 mM HEPES, 150 mM NaCl, 3 mM EDTA and 0.005% polysorbate 20. The immobilized proteins (gp120-LAV and CD4) were dissolved at 20 μg/ml in 10 mM sodium acetate, pH 5.0 and immobilized on a Biacore CM5 sensor chip using the amine coupling method. The chip was activated by mixing 400 mM EDC (N-ethyl-N-(3-dimethylaminopropyl)-carbodiimide hydrochloride) and 100 mM N-hydroxysuccinimide. An immobilization level of 6000 response units (RU) was attained for each bound protein. Residual reactive groups on the chip surface were blocked using 1.0 Methanolamine/HCl, pH 8.5.
In those experiments, biosensor chips containing immobilized gp120 or CD4 were perfused with a 1 μg/ml solution of the peptides, and binding was measured by surface plasmon resonance.

B1: Retrocyclin-1 (RC-100) (peptide)
peptide: cyclo(GICRCICGRGICRCICGR)
modifications: disulfide 7-12, 5-14, 3-16
SMILES: CC[C@H](C)[C@@H]1NC(=O)CNC(=O)[C@H](CCCNC(=N)N)NC(=O)CNC(=O)[C@@H]2CSSC[C@H](NC1=O)C(=O)N[C@@H](CCCNC(=N)N)C(=O)N[C@H]1CSSC[C@H](NC(=O)[C@H](CCCNC(=N)N)NC(=O)[C@@H]3CSSC[C@H](NC(=O)[C@H]([C@@H](C)CC)NC1=O)C(=O)NCC(=O)N[C@@H](CCCNC(=N)N)C(=O)NCC(=O)N[C@@H]([C@@H](C)CC)C(=O)N3)C(=O)N[C@@H]([C@@H](C)CC)C(=O)N2
notes: Made by solid phase synthesis, then oxidized and cyclized; also called Retro1
- Kd [1]: 29.2 nM
- Kd [2]: 31 nM
- Kd [3]: 35.4 nM

B2: RC-101 (R9K-Retrocyclin) (peptide)
peptide: cyclo(GICRCICGKGICRCICGR)
modifications: disulfide (positions not given here)
notes: Synthetic cyclic congener of retrocyclin; It was unlabelled in the SPR experiments
- Kd [1]: 20.5 nM
- Kd [2]: 28.6 nM
- Kd [3]: 31.2 nM
